Measured values as given in patent publication US20100248309A1.

Target: elastase
Experiment: Given as 'coupling constant'. Second-order association with elastase, 8 nM each, residual elastase activity on succinyl-Ala-Ala-Ala-pNA at 410 nm over 1-10 min (Beatty et al.)

| kon | Substance |
| --- | --- |
| 1.7e+06 M⁻¹ s⁻¹ | Mutant recombinant AT F51L/M374I (human alpha-1-antitrypsin mutein, Korean Patent No. 133252) (from UniProt P01009 25-418) |
| 1.8e+06 M⁻¹ s⁻¹ | Mutant recombinant AT K168C/F189C (with disulfide bond) (human alpha-1-antitrypsin mutein) (from UniProt P01009 25-418) |
| 1.6e+06 M⁻¹ s⁻¹ | wild type E. coli recombinant AT (human alpha-1-antitrypsin) (from UniProt P01009 26-418) |
| 1.7e+06 M⁻¹ s⁻¹ | Human blood plasma AT (alpha-1-antitrypsin, A9204, Sigma) (from UniProt P01009 25-418) |
